This is an account of results in patent publication US20260216242A1, “ALPP-SPECIFIC VARIANT ANTIGEN BINDING MOLECULES” (ALMAC DISCOVERY LIMITED, priority 2022, published 2026).

In this experiment the target is ALPP/ALPPL2 on ALPP/ALPPL2 positive cancer cells (MKN1, NCI-H1651, NCI-N87, Caov-3, HPAC). The experiment in a line: cell-based or functional assay.

B1: D10 A06-hFc (S239/442C T366Y/Y407T), [G4S]3 linker, MC-vc-PAB-MMAE conjugate, #633 (Fc fusion, DAR 4)
chain 1: QVQLVESGGGLVQPGGSLRLSCAASGSIFSVNTMGWYRQAPGKQRDLVAVATSGGTIHYADSVKGRFTISRDNAKNTVYLQMNSLKPEDTAVYYCNLVVPYGMIAGDHDYWGQGTKVTVSSGGGGSGGGGSGGGGSEPKSSDKTHTCPPCPAPELLGGPCVFLFPPKPKDTLMISRTPEVTCVVVDVSHEDPEVKFNWYVDGVEVHNAKTKPREEQYNSTYRVVSVLTVLHQDWLNGKEYKCKVSNKALPAPIEKTISKAKGQPREPQVYTLPPSRDELTKNQVSLYCLVKGFYPSDIAVEWESNGQPENNYKTTPPVLDSDGSFFLYSKLTVDKSRWQQGNVFSCSVMHEALHNHYTQKSLCLSPGK
chain 2: QVHLVESGGGLVQAGGSLRLSCAASGRTFLSMGWFRQAPGKEREFVAAISWTGGSTGYADSVKGRFTISRESDKETMYLQMNSLKPEDTAVYYCAARGDVYYGGDDATRYKYWGQGTQVTVSSGGGGSGGGGSGGGGSEPKSSDKTHTCPPCPAPELLGGPCVFLFPPKPKDTLMISRTPEVTCVVVDVSHEDPEVKFNWYVDGVEVHNAKTKPREEQYNSTYRVVSVLTVLHQDWLNGKEYKCKVSNKALPAPIEKTISKAKGQPREPQVYTLPPSRDELTKNQVSLTCLVKGFYPSDIAVEWESNGQPENNYKTTPPVLDSDGSFFLTSKLTVDKSRWQQGNVFSCSVMHEALHNHYTQKSLCLSPGK
modifications: here or on the partner: MC-vc-PAB-MMAE on Cys of S239C and S442C (EU numbering)
With B1, the % viability remaining at 96 h, MKN1 cells is 27.9%; the % viability remaining at 96 h, NCI-H1651 cells turned out to be 25.4%; the % viability remaining at 96 h, NCI-N87 cells was 27.3%; the IC50 (as a rule, the concentration that inhibits the measured activity by half) at 96 h, cell-killing of MKN1 cells amounted to 1.4 nM. Moreover, the half-maximal inhibitory concentration (IC50) at 96 h, cell-killing of NCI-H1651 cells is 5.4 nM and the IC50 at 96 h, cell-killing of NCI-N87 cells is 4.9 nM.

B2: D10 E06-hFc (S239/442C T366Y/Y407T), [G4S]3 linker, MC-vc-PAB-MMAE conjugate, #634 (Fc fusion, DAR 4)
chain 1: QVQLVESGGGLVQPGGSLRLSCAASGSIFSVNTMGWYRQAPGKQRDLVAVATSGGTIHYADSVKGRFTISRDNAKNTVYLQMNSLKPEDTAVYYCNLVVPYGMIAGDHDYWGQGTKVTVSSGGGGSGGGGSGGGGSEPKSSDKTHTCPPCPAPELLGGPCVFLFPPKPKDTLMISRTPEVTCVVVDVSHEDPEVKFNWYVDGVEVHNAKTKPREEQYNSTYRVVSVLTVLHQDWLNGKEYKCKVSNKALPAPIEKTISKAKGQPREPQVYTLPPSRDELTKNQVSLYCLVKGFYPSDIAVEWESNGQPENNYKTTPPVLDSDGSFFLYSKLTVDKSRWQQGNVFSCSVMHEALHNHYTQKSLCLSPGK
chain 2: QVHLVESGGGLVQAGGSLRLSCAASRRSFSEYAMGWFRQAPGKEREFVAAIGWSGVIEYADSVKGRFTISRDNAKDTVYLQMNSLKPEDTAVYYCAAGLGIRVVSQTPAYWGQGTQVTVSSGGGGSGGGGSGGGGSEPKSSDKTHTCPPCPAPELLGGPCVFLFPPKPKDTLMISRTPEVTCVVVDVSHEDPEVKFNWYVDGVEVHNAKTKPREEQYNSTYRVVSVLTVLHQDWLNGKEYKCKVSNKALPAPIEKTISKAKGQPREPQVYTLPPSRDELTKNQVSLTCLVKGFYPSDIAVEWESNGQPENNYKTTPPVLDSDGSFFLTSKLTVDKSRWQQGNVFSCSVMHEALHNHYTQKSLCLSPGK
modifications: here or on the partner: MC-vc-PAB-MMAE on Cys of S239C and S442C (EU numbering)
In turn, B2 had a % viability remaining at 96 h, MKN1 cells of 31.1%; a % viability remaining at 96 h, NCI-H1651 cells of 28.5%; a % viability remaining at 96 h, NCI-N87 cells of 27.6%; an IC50 at 96 h, cell-killing of MKN1 cells of 2.6 nM. Moreover, the IC50 at 96 h, cell-killing of NCI-H1651 cells was determined as 1.1 nM and the IC50 at 96 h, cell-killing of NCI-N87 cells was determined as 2.4 nM.
